Laboratory results published in the supplement of paper PMC9428881.
± gives the standard error.

Experiment: background-corrected fluorescence of 3'-dye-labeled ssDNA relative to brightest sequence (3'-GCGCG) (fraction); higher = brighter dye fluorescence (less quenching)
Procedure, shortened: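 Subtracting background from unlabeled oligos and scaling to the brightest sequence gave the reported fluorescence. Single-stranded DNA bearing a 3' Cy3 or Cy5 dye next to each of 1024 permuted pentamers was assembled on glass slides by light-directed phosphoramidite synthesis. Following a 2 h r.t. acetonitrile wash, slides were scanned at 532 or 635 nm before and after overnight ethylenediamine/ethanol deprotection, and values were averaged over 10 features per array and at least 3 syntheses.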

Sequence	background-corrected fluorescence (dye: Cy3 (3' terminal))	background-corrected fluorescence (dye: Cy5 (3' terminal))
TTTTTTCATCATGCTGCTGCTTTTTTTTTTTTTTTGGAAA [AAAGG]	0.642 ± 0.038	0.534 ± 0.035
TTTTTTCATGAGCAGCAGCATTTTTTTTTTTTTTTGCTTT [TTTCG]	0.5304 ± 0.0051	0.384 ± 0.038
TTTTTTCATGAGCAGCATCATTTTTTTTTTTTTTTGCTTG [GTTCG]	0.465 ± 0.023	0.343 ± 0.021
TTTTTTCATGAGCAGCATGATTTTTTTTTTTTTTTGCTTC [CTTCG]	0.388 ± 0.041	0.285 ± 0.024
TTTTTTCATGAGCAGCATGCTTTTTTTTTTTTTTTGCTTA [ATTCG]	0.534 ± 0.026	0.408 ± 0.03
TTTTTTCATGAGCATCAGCATTTTTTTTTTTTTTTGCTGT [TGTCG]	0.594 ± 0.011	0.458 ± 0.038
TTTTTTCATGAGCATCATCATTTTTTTTTTTTTTTGCTGG [GGTCG]	0.557 ± 0.039	0.47 ± 0.032
TTTTTTCATGAGCATCATGATTTTTTTTTTTTTTTGCTGC [CGTCG]	0.509 ± 0.031	0.403 ± 0.029
TTTTTTCATGAGCATCATGCTTTTTTTTTTTTTTTGCTGA [AGTCG]	0.5917 ± 0.0054	0.525 ± 0.036
TTTTTTCATGAGCATGAGCATTTTTTTTTTTTTTTGCTCT [TCTCG]	0.497 ± 0.015	0.337 ± 0.023
TTTTTTCATGAGCATGATCATTTTTTTTTTTTTTTGCTCG	0.517 ± 0.015	0.375 ± 0.033
TTTTTTCATGAGCATGATGATTTTTTTTTTTTTTTGCTCC [CCTCG]	0.396 ± 0.022	0.286 ± 0.021
TTTTTTCATGAGCATGATGCTTTTTTTTTTTTTTTGCTCA [ACTCG]	0.485 ± 0.016	0.386 ± 0.032
TTTTTTCATGAGCATGCGCATTTTTTTTTTTTTTTGCTAT [TATCG]	0.52 ± 0.019	0.376 ± 0.035
TTTTTTCATGAGCATGCTCATTTTTTTTTTTTTTTGCTAG [GATCG]	0.57 ± 0.036	0.422 ± 0.053
TTTTTTCATGAGCATGCTGATTTTTTTTTTTTTTTGCTAC [CATCG]	0.424 ± 0.02	0.338 ± 0.031
TTTTTTCATGAGCATGCTGCTTTTTTTTTTTTTTTGCTAA [AATCG]	0.534 ± 0.014	0.463 ± 0.032
TTTTTTCATGATCAGCAGCATTTTTTTTTTTTTTTGCGTT	0.571 ± 0.032	0.422 ± 0.024
TTTTTTCATGATCAGCATCATTTTTTTTTTTTTTTGCGTG [GTGCG]	0.577 ± 0.012	0.439 ± 0.023
TTTTTTCATGATCAGCATGATTTTTTTTTTTTTTTGCGTC [CTGCG]	0.481 ± 0.033	0.366 ± 0.028
TTTTTTCATGATCAGCATGCTTTTTTTTTTTTTTTGCGTA [ATGCG]	0.604 ± 0.026	0.466 ± 0.026
TTTTTTCATGATCATCAGCATTTTTTTTTTTTTTTGCGGT [TGGCG]	0.743 ± 0.026	0.566 ± 0.036
TTTTTTCATGATCATCATCATTTTTTTTTTTTTTTGCGGG [GGGCG]	0.701 ± 0.013	0.563 ± 0.045
TTTTTTCATGATCATCATGATTTTTTTTTTTTTTTGCGGC [CGGCG]	0.658 ± 0.028	0.506 ± 0.029
TTTTTTCATGATCATCATGCTTTTTTTTTTTTTTTGCGGA [AGGCG]	0.786 ± 0.033	0.689 ± 0.033
TTTTTTCATGATCATGAGCATTTTTTTTTTTTTTTGCGCT [TCGCG]	0.623 ± 0.022	0.485 ± 0.025
TTTTTTCATGATCATGATCATTTTTTTTTTTTTTTGCGCG	1 ± 0.024	1 ± 0.035
TTTTTTCATGATCATGATGATTTTTTTTTTTTTTTGCGCC [CCGCG]	0.505 ± 0.024	0.4 ± 0.041
